Experimental data reported in the nanobody polyreactivity screen of Harvey et al. (2022).

Assay: yeast display, Sf9 membrane polyspecificity reagent, FACS + sequencing; frameworks hold sequencing errors
Summary of the method: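 Synthetic nanobody libraries on Saccharomyces cerevisiae BJ5465 were galactose-induced for 36–48 hours, stained 1 hour at 4 °C with 10% biotinylated, detergent-solubilized Sf9 membrane reagent and enriched on streptavidin microbeads. FACS then separated cells into low and high (top ~1%) gates by anti-HA (expression) and streptavidin (reagent binding) fluorescence. Genes were colony-PCR amplified, MiSeq 2 × 250 sequenced and CDR-length filtered. A clone's polyreactivity label is that of its gate of origin.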

Row | Sequence | polyreactivity (PSR sort gate)
1 | QVQLVESGGGLVQAGGSLRLSCAASGSTFYPYAMGWYRQAPGKERELVAAISSGGSTSYADSVKGRFTISRDNAKNTFYLQMNSLKPEDTAVYYCNASSPGAVPVYDYDYWGQGTQVTVSS | low polyreactivity
2 | QVQLVESVGGLVQAGGSLRLSCAASGRTFYFYAMGWYRQAPGKERELVASITSSGGNTYYADSVKGRFTISRDNAKNTVYLQMNSLKPEDTAVYYCAARWFPWLQWKRYVYWGQGTQVTVSS | low polyreactivity
3 | QVQLVESGGGLVQAGGSLRLSCAASGSTFKRNAMGWYRQAPGIERELVAAISYSGGSTYYADSMKGRFTISRDNAKNTVYLQMNSLKPEDTAVYYCWGPGTQVTVSS | low polyreactivity
4 | HVQLVESGGGLVQAGGSLRLSCAASGRILYGNAMGWYRKAPGKDRELVAAISWRADSTYYADSVKGRFTISRDNAKNTVYLQMNSLKPEDTAVYYCAADGNYRRHYWGQGTQVTVSS | high polyreactivity
5 | QVQLVESGGALVQAGGSLRLSCAASGFIFNHYAMGWYRQAPGKEREFVAAISWSGGSTYYADSVKGRFTISRDNAKNTVYLQMNSLKPEETAVYYCAASYNGLWHGDYDYWGQGTQVTVSS | low polyreactivity
6 | QVQLVESGGGLVQAGGSLRLSCAASGSIVGIYVMGWYRQAPGKERELVAGISPRGGSTYYADSVKGRFTISRDYAKNTVYLQMNSLKPEDTAVYYCAAVPASFRYPMYYLGQGTQVTVSS | low polyreactivity
7 | QVQLVESGVGLVQSGGSLRLSCAASGRISAQYTMGWYRQAPGIERELFAAITWSGTNTYYADSVKGRFTISRDNAKNTVYLQFNSLKPEDTAVYYCATAVYLVIFEYDYWGQGTHVTVSS | low polyreactivity
8 | QVPLVESGGGLGQAGGSLRLSCGASGSIFSLYAMGWSRLAPGKEREVVASLTWRGDSTYYADSVTGRFTISRDNAKNTVYLQMNSLKPEDTAVYNCNAVYYYAEPTSFGGYDYWGQGTQVTVSS | low polyreactivity
9 | QVQLVESGGGLDQPGGSLRLTWAASGSTFYLYTMGWYRQAHGKERELVARISSSGSTNYADSVKGRFTISRDNAKNAVYLQMNSLKPEDTAVYYCNKDWIYRGYDYWGQATQVTVSS | high polyreactivity
10 | QVQLVESGGGLVQAGGSLRLSCAASGSTFDYYAMGWYRQAPGKERELVAAISRTGGRTYYADSVKGRFTISRDNEKNSVYLQMHSLKPEESAVYYCNSVTRIGGGDYDYWGQGTQVTVSS | low polyreactivity
11 | QDQRVDSGGGLVQAGGSLRLSCAASGSNFQWNAMGSYRHATGKERELVAAISGTGGNTYYADSVKGRFTISRDNAKNTVYLQMNSLKREDTAVYYCNTDYGEYYSWYLQWWYIPFDYWGQGTQVTVSS | low polyreactivity
12 | QVQLVESGGGLVQAGGSLRLTCAASGLIFVAYAMGWYRQAPGKERELVAAISWSGGDTYYADSVKGRFTISRDNAKNTVYLQMNSLKPEDTAVYYCAADYYPYGYDSWGQGTQVTVSS | low polyreactivity
13 | QVQLVESGGGLDQAGGSLRLSCAASGITLTANAMGWYRQSPGTERELVAAISRGGSTYYADSVKGRFTISRDNAKNTVYLQMNSVKPEDTQVFYCNKAGGYWYAKRDYDYWGQGTQVTVSS | high polyreactivity
14 | QVQLVESGGGLVQAGGSLRLSCAPSGRTFRYYAMGWYRQAPGKERELVAAINWSGGSTYYADSVKGRFSISRDNAKNAVYLQKNSLKPEDTAVYYCAADEKMYITGYDYWGQGTQVTVSS | low polyreactivity
15 | QVQLVESGGGLVQAGGSLRLSCAASGFTIGANTMGWYRQAPGKERELVAAISASGGSTYYADSVKGRFTISRDNAKNTVYLQMNSLKPEDTAVYYCAARRYPGRTATYYSWGQGTQVTVSS | high polyreactivity
16 | QVQLVESGVGIVQAGGSLRLSCAASGSTFRAYVMGWYRQAPGKERELVAVISSGGSTKYADSVKGRFTISRDNAKNTDYVQMNSLKPVDTAVYYCAARRASRHRYYPFDYWGQGTQVTVSS | high polyreactivity
17 | QVQLVESGGGLVQAGGSLRLSCAASGNTFGRYAMGWYRQAPGKERELVASIRGSSVRTFYADSVKGRFTISRDNAKNTVYLQMNSLKPEDTAVYYCAKRGYAYPSSYDSWGQGTQVTVSS | high polyreactivity
